Data: paper PMC4877013

Experiments:
[1] = biological target: major histocompatibility complex class II of H-2^d (A^d) on macrophages of Balb/c mice (mouse (endogenous in Balb/c peritoneal macrophages)); assay: flow cytometry on cells; as a1, but L. donovani infected macrophages (I-MΦ) of Balb/c mice
[2] = biological target: major histocompatibility complex class II of H-2^d (A^d) on macrophages of Balb/c mice (mouse (endogenous in Balb/c peritoneal macrophages))

## LACK_(156-173) peptide (amino acid residues 156–173 of LACK protein, Leishmania homolog of receptors for activated C-kinase)
[1]
  MFI of LACK (156-173)-A^d at '0' h in I-MΦ against N-MΦ: 30 % less
[2]
  rate of decrease of IL-2 production by anti-LACK T cell hybridoma LMR7.5 cocultured with peptide pulsed, fixed I-MΦ (0 to 12 h after the pulse): 17.1
  rate of decrease of IL-2 production by anti-LACK T cell hybridoma LMR7.5 cocultured with peptide pulsed, fixed I-MΦ-AL (0 to 12 h after the pulse): 15.8
  rate of decrease of IL-2 production by anti-LACK T cell hybridoma LMR7.5 cocultured with peptide pulsed, fixed N-MΦ (0 to 12 h after the pulse): 1.29
